Laboratory results: US20260209345A1 (IOMX THERAPEUTICS, published 2026)

How the values were obtained:
[1] = target: T1, recombinant LILRB1 ECD (human, UniProt Q8NHL6 24-461); assay: ELISA, LILRB1 ECD binding to HLA-G-Fc
T1 construct: also called biotinylated LILRB1 ECD
Procedure: (§1) HLA-G inhibition was tested by ELISA. 384-well Maxisorp plates were coated with 2 ug/mL B2M-HLA-G fused to a mouse IgG2a-Fc and the plates were blocked with 2% (w/v) BSA in PBST. […] 15 ul of the antibody dilution series (300 nM to 0.3 nM) were mixed with 30 μL of the pre-mixed LILRB/Avidin-HRP solution (final antibody concentration 100 nM to 0.1 nM) and incubated for 1 h at room temperature. After three wash cycles with PBST, 20 μL of the antibody/LILRB/Avidin-HRP solution was transferred to the plate with immobilized HLA-G and incubated for 15 min at room temperature. After three wash cycles with PBST, residual LILRB binding to HLA-G was detected by developing the ELISA with TMB substrate.

[2] = target: T2, recombinant LILRB2 ECD (human, UniProt Q8N423 22-460); assay: ELISA, LILRB2 ECD binding to HLA-G-Fc
T2 construct: also called biotinylated LILRB2 ECD
T2 sequence (Q8N423 22-460 limits assumed): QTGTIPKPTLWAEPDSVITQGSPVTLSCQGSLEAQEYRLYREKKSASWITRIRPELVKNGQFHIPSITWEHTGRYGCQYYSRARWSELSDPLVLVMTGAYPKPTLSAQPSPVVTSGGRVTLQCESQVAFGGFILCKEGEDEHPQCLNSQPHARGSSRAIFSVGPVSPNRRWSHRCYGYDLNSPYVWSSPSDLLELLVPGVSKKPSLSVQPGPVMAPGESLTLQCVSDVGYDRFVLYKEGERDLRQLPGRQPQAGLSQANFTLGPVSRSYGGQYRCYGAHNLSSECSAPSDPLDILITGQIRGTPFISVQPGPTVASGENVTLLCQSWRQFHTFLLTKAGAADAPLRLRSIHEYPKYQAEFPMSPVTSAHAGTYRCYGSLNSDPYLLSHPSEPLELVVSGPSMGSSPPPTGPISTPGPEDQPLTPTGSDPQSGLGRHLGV
Procedure: as §1

[3] = target: T2, recombinant LILRB2 ECD; assay: BLI, IgG on AHC sensor, ECD in solution
Procedure: (§2) Briefly, IgGs were captured on anti-human capture (AHC) biosensors (Sartorius). […] Subsequently, the sensors were dipped into 1× Kinetics Buffer to measure the dissociation over 420 s. All sensorgrams were double referenced against 1× Kinetics Buffer and unloaded […] sensors to subtract sensor drifts and potential reference binding of the analytes. The affinities were determined by applying a 1:1 binding model.

[4] = target: T1, recombinant LILRB1 ECD; assay: BLI, IgG on AHC sensor, ECD in solution
Procedure: as §2

[5] = target: T3, recombinant LILRA1 ECD (human, UniProt O75019 17-461); assay: BLI, IgG on AHC sensor, ECD in solution
T3 construct: whole canonical entry named; also called LILA1
T3 sequence (O75019 17-461 limits assumed): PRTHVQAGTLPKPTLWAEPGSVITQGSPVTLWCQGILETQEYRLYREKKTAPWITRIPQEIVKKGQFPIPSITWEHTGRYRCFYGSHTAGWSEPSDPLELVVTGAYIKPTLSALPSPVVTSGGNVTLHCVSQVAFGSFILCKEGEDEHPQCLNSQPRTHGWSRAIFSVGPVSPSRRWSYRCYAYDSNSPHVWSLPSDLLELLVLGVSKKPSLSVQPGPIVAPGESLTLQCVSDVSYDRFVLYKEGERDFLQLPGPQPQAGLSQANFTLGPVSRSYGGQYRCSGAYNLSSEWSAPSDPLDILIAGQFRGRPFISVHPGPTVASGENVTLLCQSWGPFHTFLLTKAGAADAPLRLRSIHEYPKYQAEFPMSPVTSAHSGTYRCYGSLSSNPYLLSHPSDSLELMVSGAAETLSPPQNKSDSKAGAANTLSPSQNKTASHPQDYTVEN
Procedure: as §2

[6] = target: T4, recombinant LILRA3 (human, UniProt Q8N6C8 24-439); assay: BLI, IgG on AHC sensor, ECD in solution
T4 construct: whole entry named; also called LILRA3 ECD; LILA3
T4 sequence (Q8N6C8 24-439 limits assumed): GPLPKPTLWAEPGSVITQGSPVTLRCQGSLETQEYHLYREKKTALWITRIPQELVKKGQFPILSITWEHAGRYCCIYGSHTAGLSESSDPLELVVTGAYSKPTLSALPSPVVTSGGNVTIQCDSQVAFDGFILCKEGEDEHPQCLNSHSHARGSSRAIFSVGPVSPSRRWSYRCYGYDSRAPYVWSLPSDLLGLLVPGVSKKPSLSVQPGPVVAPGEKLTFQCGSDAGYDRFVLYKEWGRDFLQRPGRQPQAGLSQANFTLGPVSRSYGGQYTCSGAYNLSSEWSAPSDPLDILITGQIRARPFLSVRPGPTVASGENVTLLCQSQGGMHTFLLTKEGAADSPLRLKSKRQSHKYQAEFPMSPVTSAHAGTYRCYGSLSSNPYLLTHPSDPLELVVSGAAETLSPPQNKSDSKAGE
Procedure: as §2

T1 sequence (Q8NHL6 24-461 limits assumed): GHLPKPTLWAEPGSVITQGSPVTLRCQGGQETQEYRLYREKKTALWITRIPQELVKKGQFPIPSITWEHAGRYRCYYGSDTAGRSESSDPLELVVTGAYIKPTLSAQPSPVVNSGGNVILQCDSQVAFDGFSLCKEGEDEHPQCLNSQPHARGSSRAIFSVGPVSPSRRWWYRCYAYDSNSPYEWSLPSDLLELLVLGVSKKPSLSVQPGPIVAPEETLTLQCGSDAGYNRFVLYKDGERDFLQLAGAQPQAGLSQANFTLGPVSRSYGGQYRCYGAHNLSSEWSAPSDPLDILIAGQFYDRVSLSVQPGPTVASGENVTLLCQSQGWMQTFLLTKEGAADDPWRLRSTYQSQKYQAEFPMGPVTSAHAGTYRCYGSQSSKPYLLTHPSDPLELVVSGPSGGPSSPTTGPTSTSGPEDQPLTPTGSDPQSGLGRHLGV

Binder	IC50 [1]	IC50 [2]	Kd [3]	Kd [4]	Kd [5]	Kd [6]
A-025 (antibody, V domains shown, tested as IgG) VH: QVQLVQSGAEVKKPGSSVKVSCKASGYTFSKSAMSWVRQAPGQGLEWMGGIVPKFHTSVYAQKFQGRVTITADESTSTAYMELSSLRSEDTAVYYCAKGPPVGSSSWYTDWYFDLWGRGTLVTVSS VL: SYELTQPPSVSVSPGQTASITCSGDKLGDKYASWYQQKPGQSPVLVIYQDSKRPSGIPERFSGSNSGNTATLTISGTQAEDEADYYCLSYGAHSHGVVFGGGTKLTVL	5.1 nM	4.3 nM	4.2 nM	1.8 nM	71.3 nM	166 nM
A-047 (antibody, V domains shown, tested as IgG) VH: QVQLVQSGAEVKKPGSSVKVSCKASGYTFSKSAMSWVRQAPGQGLEWMGGIVPKFHTSVYAQKFQGRVTITADESTSTAYMELSSLRSEDTAVYYCAKGPPVGSSSWYTDWYFDLWGRGTLVTVSS VL: SYELTQPPSVSVSPGQTASITCSGDKLGDKYASWYQQKPGQSPVLVIYQDSKRPSGIPERFSGSNSGNTATLTISGTQAEDEADYYCSLYGAGHTVVFGGGTKLTVL	1.9 nM	4.6 nM	1.7 nM	2.6 nM	128 nM	318 nM
A-027 (antibody, V domains shown, tested as IgG) VH: QVQLVQSGAEVKKPGSSVKVSCKASGGSFTGYAISWVRQAPGQGLEWMGGILPSFYTAVYAQKFQGRVTITADESTSTAYMELSSLRSEDTAVYYCAKGPPVGSSSWYTDWYFDLWGRGTLVTVSS VL: SYELTQPPSVSVSPGQTASITCSGDKLGDKYASWYQQKPGQSPVLVIYQDSKRPSGIPERFSGSNSGNTATLTISGTQAEDEADYYCLSYGAHSHGVVFGGGTKLTVL	7 nM	5.6 nM	1.9 nM	0.5 nM	33.9 nM	124 nM
A-029 (antibody, V domains shown, tested as IgG) VH: QVQLVQSGAEVKKPGSSVKVSCKASGYTFSIYAMSWVRQAPGQGLEWMGGIIPSFRTAVYAQKFQGRVTITADESTSTAYMELSSLRSEDTAVYYCAKGPPVGSSSWYTDWYFDLWGRGTLVTVSS VL: SYELTQPPSVSVSPGQTASITCSGDKLGDKYASWYQQKPGQSPVLVIYQDSKRPSGIPERFSGSNSGNTATLTISGTQAEDEADYYCLSYGAHSHGVVFGGGTKLTVL	6.5 nM	5.6 nM	2.7 nM	1.9 nM	29.5 nM	123 nM
A-026 (antibody, V domains shown, tested as IgG) VH: QVQLVQSGAEVKKPGSSVKVSCKASGYTFTSHGMSWVRQAPGQGLEWMGGILPIFHTATYAQKFQGRVTITADESTSTAYMELSSLRSEDTAVYYCAKGPPVGSSSWYTDWYFDLWGRGTLVTVSS VL: SYELTQPPSVSVSPGQTASITCSGDKLGDKYASWYQQKPGQSPVLVIYQDSKRPSGIPERFSGSNSGNTATLTISGTQAEDEADYYCLSYGAHSHGVVFGGGTKLTVL	6.1 nM	5.3 nM	3.9 nM	4.4 nM	120 nM	79.3 nM
A-028 (antibody, V domains shown, tested as IgG) VH: QVQLVQSGAEVKKPGSSVKVSCKASGYSFSEHAMSWVRQAPGQGLEWMGGIIPKFSTSVFAQKFQGRVTITADESTSTAYMELSSLRSEDTAVYYCAKGPPVGSSSWYTDWYFDLWGRGTLVTVSS VL: SYELTQPPSVSVSPGQTASITCSGDKLGDKYASWYQQKPGQSPVLVIYQDSKRPSGIPERFSGSNSGNTATLTISGTQAEDEADYYCLSYGAHSHGVVFGGGTKLTVL	3.9 nM	3.9 nM	1.6 nM	1.8 nM	48.3 nM	187 nM

The remaining lines, values ahead:

IC50 [1]	IC50 [2]	Kd [3]	Kd [4]	Kd [5]	Kd [6]	Binder
4.1 nM	4.2 nM	0.9 nM	0.8 nM	11.6 nM	50.1 nM	A-031 (antibody, V domains shown, tested as IgG) VH: QVQLVQSGAEVKKPGSSVKVSCKASGYTFTKTAMSWVRQAPGQGLEWMGGIIPSYYTAVYAQKFQGRVTITADESTSTAYMELSSLRSEDTAVYYCAKGPPVGSSSWYTDWYFDLWGRGTLVTVSS VL: SYELTQPPSVSVSPGQTASITCSGDKLGDKYASWYQQKPGQSPVLVIYQDSKRPSGIPERFSGSNSGNTATLTISGTQAEDEADYYCLSYGAHSHGVVFGGGTKLTVL
6.7 nM	4.4 nM	3.2 nM	3.2 nM	63.8 nM	124 nM	A-030 (antibody, V domains shown, tested as IgG) VH: QVQLVQSGAEVKKPGSSVKVSCKASGGSFQSYAFSWVRQAPGQGLEWMGGIVPIYYTATYAQKFQGRVTITADESTSTAYMELSSLRSEDTAVYYCAKGPPVGSSSWYTDWYFDLWGRGTLVTVSS VL: SYELTQPPSVSVSPGQTASITCSGDKLGDKYASWYQQKPGQSPVLVIYQDSKRPSGIPERFSGSNSGNTATLTISGTQAEDEADYYCLSYGAHSHGVVFGGGTKLTVL
2 nM	2.4 nM	13.7 nM	21.6 nM	1030 nM	1550 nM	A-039 (antibody, V domains shown, tested as IgG) VH: QVQLVQSGAEVKKPGSSVKVSCKASGGTFSSYAISWVRQAPGQGLEWMGGIIPIFGTANYAQKFQGRVTITADESTSTAYMELSSLRSEDTAVYYCAKGPPVGSSSWYTDWYFDLWGRGTLVTVSS VL: SYELTQPPSVSVSPGQTASITCSGDKLGDKYASWYQQKPGQSPVLVIYQDSKRPSGIPERFSGSNSGNTATLTISGTQAEDEADYYCALYGGGHTVVFGGGTKLTVL
10.5 nM	7.6 nM	2.5 nM	2.2 nM	79.5 nM	253 nM	A-032 (antibody, V domains shown, tested as IgG) VH: QVQLVQSGAEVKKPGSSVKVSCKASGGTFQSYAFSWVRQAPGQGLEWMGGIVPQYSTAVYAQKFQGRVTITADESTSTAYMELSSLRSEDTAVYYCAKGPPVGSSSWYTDWYFDLWGRGTLVTVSS VL: SYELTQPPSVSVSPGQTASITCSGDKLGDKYASWYQQKPGQSPVLVIYQDSKRPSGIPERFSGSNSGNTATLTISGTQAEDEADYYCLSYGAHSHGVVFGGGTKLTVL
8.3 nM	8.6 nM	1.4 nM	0.5 nM	23 nM	84.8 nM	A-033 (antibody, V domains shown, tested as IgG) VH: QVQLVQSGAEVKKPGSSVKVSCKASGYTFSSHAMSWVRQAPGQGLEWMGGIIPTFKTAVFAQKFQGRVTITADESTSTAYMELSSLRSEDTAVYYCAKGPPVGSSSWYTDWYFDLWGRGTLVTVSS VL: SYELTQPPSVSVSPGQTASITCSGDKLGDKYASWYQQKPGQSPVLVIYQDSKRPSGIPERFSGSNSGNTATLTISGTQAEDEADYYCLSYGAHSHGVVFGGGTKLTVL
2.1 nM	7 nM	0.3 nM	6.6 nM	51.6 nM	345 nM	A-040 (antibody, V domains shown, tested as IgG) VH: QVQLVQSGAEVKKPGSSVKVSCKASGGTFSSYAISWVRQAPGQGLEWMGGIIPIFGTANYAQKFQGRVTITADESTSTAYMELSSLRSEDTAVYYCAKGPPVGSSSWYTDWYFDLWGRGTLVTVSS VL: SYELTQPPSVSVSPGQTASITCSGDKLGDKYASWYQQKPGQSPVLVIYQDSKRPSGIPERFSGSNSGNTATLTISGTQAEDEADYYCSLYGPAHTGVFGGGTKLTVL
